The source of these data is patent publication US7183377 (US Dept. of Health and Human Services, dated 2007).

The target in this assay is T1, Wingless (Wg), the Drosophila homolog of Wnt-1 (Drosophila, UniProt P09615 18-468).
T1 construct: mature; Used as unpurified conditioned medium in the ELISAs
T1 sequence (looked up): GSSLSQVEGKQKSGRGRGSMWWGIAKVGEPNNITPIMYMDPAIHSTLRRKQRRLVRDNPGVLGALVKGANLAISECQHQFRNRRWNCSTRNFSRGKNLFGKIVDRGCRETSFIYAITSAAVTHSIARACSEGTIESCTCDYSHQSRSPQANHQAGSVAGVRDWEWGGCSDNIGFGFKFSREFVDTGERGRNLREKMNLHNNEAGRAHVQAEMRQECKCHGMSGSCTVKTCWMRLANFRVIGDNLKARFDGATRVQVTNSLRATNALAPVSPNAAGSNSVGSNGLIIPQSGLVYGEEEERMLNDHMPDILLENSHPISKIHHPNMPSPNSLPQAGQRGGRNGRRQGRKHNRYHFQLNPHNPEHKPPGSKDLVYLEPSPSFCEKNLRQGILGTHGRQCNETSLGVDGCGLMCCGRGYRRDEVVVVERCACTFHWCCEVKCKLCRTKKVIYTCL
In words: ELISA: FRP coated at 100 ng/well, Wg-containing S2 conditioned medium, detection with anti-Wg antibody. From the text: As an alternative, cell-free systems to study the binding of FRP and Wnts were developed. These systems have the advantage of simplicity, as the profile of endogenous Frizzled/FRP/Wnt expression would not be an issue. Moreover, experiments now can be performed with purified recombinant FRP. One model system disclosed in detail below makes use of an ELISA type of format. Microtiter wells are first coated with purified FRP, and then blocked with a large excess of bovine serum albumin (BSA). To minimize the problems associated with solubilizing Wnts, initial studies focused on studying FRP binding to Wingless (Wg) because an expression system is available that releases Wg into conditioned medium. Van Leeuwen, et al., Nature 368:342–344 (1994). Although expression of a heat shock-Wg construct in transfected S2 insect cells results in only a small fraction of recombinant Wg in the media, it is sufficient for binding studies and obviates the need for detergents or other agents to extract the protein from cell surfaces or extracellular matrix. […] After washing, the wells are sequentially incubated with antibody to Wg, secondary antiserum (against the Wg antibody) conjugated to alkaline phosphatase, and p-nitrophenol phosphate. […]
FIG. 13 illustrates the binding of FRP and Wg. […] Color development, monitored at 405 nm, was indicative of Wg binding in the well.
(In general: An ELISA detects its analyte on a solid surface through an enzyme-linked reagent.)

B1: human Frizzled-related protein (FRP) (receptor)
chain: VGSASEYDYVSFQSDIGPYQSGRFYTKPPQCVDIPADLRLCHNVGYKKMVLPNLLEHETMAEVKQQASSWVPLLNKNCHAGTQVFLCSLFAPVCLDRPIYPCRWLCEAVRDSCEPVMQFFGFYWPEMLKCDKFPEGDVCIAMTPPNATEASKPQGTTVCPPCDNELKSEAIIEHLCASEFALRMKIKEVKKENGDKKIVPKKKKPLKLGPIKKKDLKKLVLYLKNGADCPCHQLDNLSHHFLIMGRKVKSQYLLTAIHKWDKKNKEFKNFMKKMKNHECPTFQSVFK
notes: The natural protein purified from M426 medium began 11 residues further downstream (residue 38), with a second N-terminus three residues later; The N-terminus of the recombinant protein is not reported; In the ELISAs it was untagged full-length FRP purified from the medium of MDCK cells transfected with pcDNA3.1(+); also called hFRP; recombinant FRP
Regarding B1, the binding result is “binds”.
